According to US20260069727A1, “FORMULATIONS FOR RADIOTHERAPY AND DIAGNOSTIC IMAGING AND USE THEREOF IN TREATMENT, DIAGNOSIS AND IMAGING DISEASES” (priority 2022, published 2026):
“Also recorded” adds a separate entry of the source.

How the values were obtained:
[1] = Radiochemical purity / stability of the formulation by radioHPLC; assay type: physicochemical
Text: The stability of the formulation relates to the stability of the complex, where the radioisotope may undergo dissociation or the complex may undergo radiolysis. The stability of the complex can be measured by considering the radiochemical purity of the formulation. Radiochemical purity is defined as the amount of the radioisotope complexed by the sarcophagine ligand expressed as a percentage of the total amount of the radioisotope present in the formulation. The radioisotope may be present in the formulation as a complex with the sarcophagine ligand, as a free radioisotope or as part of a radiolysis product. […] In the embodiments, described herein, radiochemical purity may be determined by techniques such as radioHPLC, where the amount of the radioisotope in either its complexed or free form is determined and compared with the amount of the radioisotope introduced to the formulation. A person skilled in the art would understand the necessary conditions for separation, analysis and quantification of the formulation by radioHPLC. Nonetheless, in certain embodiments, the mobile phase used to analyse a formulation as disclosed herein by radioHPLC comprises about 0.1% trifluoroacetic acid (TFA) in water. […]
Product stability was monitored up to 96 hours post End of Synthesis (EOS) for 3 validation batches of [^67Cu]Formula(Ib) in an aqueous formulation prepared as outlined above. […]

[2] = Free 67Cu in the formulation by radioTLC; assay type: physicochemical; conditions: batch QC result; acceptance ≤5%
Text: The stability of the complex can also be measured by considering the amount of free copper, i.e. free copper radioisotope that is intended to be complexed with the sarcophagine ligand, present in the formulation. In certain embodiments, the amount of free copper radioisotope present in formulation is not more than about 5%. In other embodiments, the amount of free copper radioisotope present in the formulation is not more than about 4%. In other embodiments, the amount of free copper present in the formulation is not more than about 3%. In other embodiments, the amount of free copper present in the formulation is not more than about 2%. In other embodiments, the amount of free copper present in the formulation is not more than about 1%. In other embodiments, the amount of free ^67Cu present in the formulation is less than about 1%. In other embodiments, the amount of free ^67Cu present in the formulation is less than about 2%.
TLC was performed with a mobile phase of 10 mM NaEDTA in 50 mM phosphate buffer using a silica gel 60 F254 aluminium backed TLC plate with dimensions of 1 cm×10 cm.

[3] = pH by probe (quality control); assay type: physicochemical; conditions: batch QC result; acceptance 4.0-8.0
[4] = Appearance / visible particles in injection (quality control); assay type: physicochemical; conditions: batch QC result
[5] = cited from earlier work

SMILES	Radiochemical purity by radio-HPLC ([1]; batch QC result, acceptance ≥90%)	radiochemical purity (RPC) over the stability test ([1]; up to 96 hours post End of Synthesis, 3 validation batches)	Free [67Cu]Cu2+ by TLC [2]	pH by probe [3]	Appearance/Visible particles in injection [4]	pKa (acid dissociation constant) [5]
CC(C)CC(NC(=O)CC(O)C(CC(C)C)NC(=O)C(Cc1c[nH]cn1)NC(=O)CNC(=O)C(NC(=O)C(C)NC(=O)C(Cc1c[nH]c2ccccc12)NC(=O)C(CCC(N)=O)NC(=O)C(Cc1ccccc1)NC(=O)CCOCCNC(=O)CCCC(=O)NC12CNCCNCC(C)(CNCCNC1)CNCCNC2)C(C)C)C(N)=O (stereo not drawn) [[^67Cu]Formula (Ib), metal not drawn]	94.23%	≥ 94.0%	0%	6.72	Clear ✓; also recorded: Particle-free ✓	–
O=C(O)c1cc(O)ccc1O [gentisic acid, 2,5-dihydroxybenzoic acid]	–	–	–	–	–	about 2.5
